Test results published in US9453838B2, “Methods for making microarrays and their uses” (Asociación Centro De Investigación Cooperative En Bioma …, priority 2013, dated 2016).

Key:
Settings in all cases: RNAse-B 50 μg/mL in PBS
[1] = target: T1, GNA (Galanthus nivalis agglutinin) (Galanthus nivalis, UniProt P30617); assay: Lectin array, RNAse B binding by fluorescence scanning and MALDI-Tof MS
T1 sequence (P30617 20-128): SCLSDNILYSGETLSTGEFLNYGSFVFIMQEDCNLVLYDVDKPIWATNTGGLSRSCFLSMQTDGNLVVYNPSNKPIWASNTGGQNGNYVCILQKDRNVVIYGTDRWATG
Method: (§1) Slides were stored at −20° C.

[2] = system: WGA (Wheat Germ Agglutinin); assay: as above
Method: as §1

[3] = target: ConA (Canavalia ensiformis, UniProt P02866)
Method: 0.4-0.3 mg/mL (glyco)protein solutions (Concanavalin A, ConA; WGA; and Galanthus nivalis agglutinin, GNA, lectins and RNAse B glycoprotein) were prepared in PBS, and 50 drops (˜0.3 nL per drop) were deposited onto the surface with a dot pitch of 750×750 μm. Slides were then incubated overnight at room temperature in 90% humidity, washed with PBS, quenched with ethanolamine and dried by purging Ar. Slides were stored at −20° C.
A lectin array of ConA, GNA and WGA was printed onto slides as described above, and Cy3-labelled or unlabelled RNAse-B (50 μg/mL in PBS) was added to wells. RNAse B binding and lectin modifications were analyzed by fluorescence imaging and MALDI-Tof MS (FIG. 12).

B1: RNAse B: RNAse B glycoprotein, glycoforms presenting mannose oligosaccharides M5-M9 (protein, UniProt P61823 27-150, looked up)
Ribonuclease pancreatic: KETAAAKFERQHMDSSTSAASSSNYCNQMMKSRNLTKDRCKPVNTFVHESLADVQAVCSQKNVACKNGQTNCYQSYSTMSITDCRETGSSKYPNCAYKTTQANKHIIVACEGNPYVPVHFDASV
modifications: glycoform B
B1 was tested, and the “binding to GNA” value [1] was “binding”, the “interaction with WGA” value [2] was “no interaction” and the “binding to ConA” value [3] was “binding”.
